Source: patent publication US20250340636A1 (Memorial Sloan Kettering, published 2025)
Residue numbers refer to the chain shown, from its start.

Columns and labels:
human L1CAM on cells [1] = target: T1, human L1CAM on cells (human, UniProt P32004 20-1257); assay: cell-based or functional assay
human L1CAM on cells [2] = target: T1, human L1CAM on cells; assay: flow cytometry, MCF-7 cells
Description: (§1) Binding Analysis. […] Dissociation constants (KD) for binding to soluble human and cynomolgus monkey L1CAM-His were determined using biolayer interferometry (BLI). In addition, EC50 values for binding to cell-bound L1CAM were established by flow cytometry using HEK293T/FT cells overexpressing human or mouse L1CAM, MCF-7 cells, and MDA-MB-231 cells. In addition, the epitope regions of the mAbs were determined by BLI interaction analysis with L1CAM subdomains (Ig and FN) expressed individually, and by a BLI competition experiment to identify epitope bins.

[3] = target: T2, extracellular domain of human L1CAM (isoform 1) fused to a poly-histidine tag via its carboxy terminus (human, UniProt P32004 20-1120); assay: BLI, soluble human L1CAM-His
T2 construct: Bought (Creative Biomart); also called L1CAM-His; huL1CAM protein
Description: as §1

human L1CAM on cells [4] = target: T1, human L1CAM on cells; assay: flow cytometry, MDA-MB-231 cells
Description: as §1

[5] = target: T3, soluble cynomolgus monkey L1CAM, His-tagged, monomeric (cynomolgus monkey, UniProt A0A2K5URB5 20-1120); assay: BLI, soluble cynomolgus L1CAM-His
T3 construct: also called cyL1CAM protein; cynomolgus L1CAM-His
Description: as §1

human L1CAM on cells [6] = target: T1, human L1CAM on cells; assay: flow cytometry, HEK293T cells overexpressing human L1CAM
Description: as §1

[7] = target: T4, mouse L1CAM on transiently transfected HEK293FT cells (mouse, UniProt P11627 20-1260); assay: flow cytometry, HEK293FT cells transfected with mouse L1CAM
T4 construct: whole, on cells; also called mouse L1CAM on cells

human L1CAM on cells [8] = target: T1, human L1CAM on cells; assay: FACS on cells expressing L1CAM (293FT or MDA-MB-231; the table does not say which)
Description: Briefly, CDR-grafted heavy and light chains were expressed in various combinations and the antigen-binding properties were evaluated.

[9] = target: T5, recombinant L1CAM-Fc fusion protein (human, UniProt P32004 20-1120); assay: BLI, L1CAM-Fc on AHC biosensors, Fab 3-200 nM, 1:1 fit
T5 construct: also called recombinant L1CAM protein; not shown: human Fc fused to the carboxy terminus
Description: Here, recombinant L1CAM-Fc fusion protein was immobilized onto anti-Human IgG Fc Capture (AHC) biosensors and binding of Fabs was measured kinetically over a 3-200 nM concentration range. Kinetic data were fitted to a 1:1 binding model to compute association (kₒₙ) and dissociation (koff) rate constants, in addition to equilibrium dissociation constants (KD) as shown in Table 87.

[10] = target: T2, extracellular domain of human L1CAM …; assay: BLI, soluble human L1CAM-His; off-rate below detection limit

T4 sequence (P11627 20-1260): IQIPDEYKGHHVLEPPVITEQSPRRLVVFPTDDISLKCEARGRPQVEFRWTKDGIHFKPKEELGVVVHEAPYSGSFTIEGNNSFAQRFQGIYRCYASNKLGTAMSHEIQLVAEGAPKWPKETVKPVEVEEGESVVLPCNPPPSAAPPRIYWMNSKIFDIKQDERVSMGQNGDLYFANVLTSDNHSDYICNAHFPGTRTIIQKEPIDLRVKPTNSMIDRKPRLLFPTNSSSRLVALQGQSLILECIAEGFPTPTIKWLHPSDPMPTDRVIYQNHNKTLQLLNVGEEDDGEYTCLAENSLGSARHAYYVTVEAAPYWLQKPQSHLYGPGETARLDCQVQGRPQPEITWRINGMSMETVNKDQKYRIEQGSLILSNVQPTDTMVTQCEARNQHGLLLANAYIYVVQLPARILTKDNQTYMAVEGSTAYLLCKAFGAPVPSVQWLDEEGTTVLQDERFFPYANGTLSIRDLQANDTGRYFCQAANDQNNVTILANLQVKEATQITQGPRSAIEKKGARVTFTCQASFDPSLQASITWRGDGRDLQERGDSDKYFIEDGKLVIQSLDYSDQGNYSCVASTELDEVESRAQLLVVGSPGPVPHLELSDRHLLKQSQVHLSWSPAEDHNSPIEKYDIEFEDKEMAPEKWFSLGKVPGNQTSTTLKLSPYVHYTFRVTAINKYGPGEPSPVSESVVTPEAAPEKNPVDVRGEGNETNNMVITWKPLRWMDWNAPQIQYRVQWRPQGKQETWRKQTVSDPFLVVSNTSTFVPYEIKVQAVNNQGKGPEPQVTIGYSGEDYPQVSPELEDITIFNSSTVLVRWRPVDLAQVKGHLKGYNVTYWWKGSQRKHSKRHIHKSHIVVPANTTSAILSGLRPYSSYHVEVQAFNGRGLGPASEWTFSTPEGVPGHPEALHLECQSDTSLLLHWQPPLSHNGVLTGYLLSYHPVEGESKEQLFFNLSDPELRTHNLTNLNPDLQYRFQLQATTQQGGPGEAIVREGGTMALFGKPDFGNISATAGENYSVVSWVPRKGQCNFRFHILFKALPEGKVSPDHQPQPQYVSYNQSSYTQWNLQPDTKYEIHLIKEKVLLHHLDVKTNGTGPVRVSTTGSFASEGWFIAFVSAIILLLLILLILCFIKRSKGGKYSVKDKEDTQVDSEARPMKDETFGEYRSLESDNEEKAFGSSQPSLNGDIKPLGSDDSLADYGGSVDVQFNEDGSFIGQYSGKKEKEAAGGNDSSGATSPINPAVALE
T2 sequence (P32004 20-1120): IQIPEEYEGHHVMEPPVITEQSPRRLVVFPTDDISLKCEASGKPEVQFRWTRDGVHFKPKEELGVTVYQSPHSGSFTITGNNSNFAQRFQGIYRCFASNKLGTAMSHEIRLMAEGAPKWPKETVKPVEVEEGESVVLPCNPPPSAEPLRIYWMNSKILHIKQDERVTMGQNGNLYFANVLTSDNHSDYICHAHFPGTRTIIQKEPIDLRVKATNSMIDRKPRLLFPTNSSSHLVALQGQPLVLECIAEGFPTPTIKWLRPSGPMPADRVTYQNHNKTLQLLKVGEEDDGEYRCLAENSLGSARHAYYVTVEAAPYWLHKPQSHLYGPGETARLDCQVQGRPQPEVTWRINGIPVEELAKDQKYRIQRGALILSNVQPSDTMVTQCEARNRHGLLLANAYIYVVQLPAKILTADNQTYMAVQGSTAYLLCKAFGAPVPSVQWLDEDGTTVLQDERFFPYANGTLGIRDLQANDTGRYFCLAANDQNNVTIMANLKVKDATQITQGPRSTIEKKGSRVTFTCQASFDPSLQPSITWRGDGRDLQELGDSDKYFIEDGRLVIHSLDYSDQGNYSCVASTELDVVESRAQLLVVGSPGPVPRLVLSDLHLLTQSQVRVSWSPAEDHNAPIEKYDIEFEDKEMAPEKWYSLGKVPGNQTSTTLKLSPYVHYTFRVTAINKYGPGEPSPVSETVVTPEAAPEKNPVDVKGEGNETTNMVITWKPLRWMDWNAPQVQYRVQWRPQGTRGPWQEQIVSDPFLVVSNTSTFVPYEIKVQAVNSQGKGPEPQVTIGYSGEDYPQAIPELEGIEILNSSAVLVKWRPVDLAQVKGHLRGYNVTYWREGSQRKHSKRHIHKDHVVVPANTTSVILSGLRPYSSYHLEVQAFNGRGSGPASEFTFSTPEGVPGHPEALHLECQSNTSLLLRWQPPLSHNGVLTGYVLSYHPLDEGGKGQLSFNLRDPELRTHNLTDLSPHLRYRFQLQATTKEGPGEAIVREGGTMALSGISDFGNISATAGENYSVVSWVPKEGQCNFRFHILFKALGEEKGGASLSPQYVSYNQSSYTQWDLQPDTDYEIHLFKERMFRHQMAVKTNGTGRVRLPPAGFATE
T5 sequence (P32004 20-1120): as above
T1 sequence (P32004 20-1257): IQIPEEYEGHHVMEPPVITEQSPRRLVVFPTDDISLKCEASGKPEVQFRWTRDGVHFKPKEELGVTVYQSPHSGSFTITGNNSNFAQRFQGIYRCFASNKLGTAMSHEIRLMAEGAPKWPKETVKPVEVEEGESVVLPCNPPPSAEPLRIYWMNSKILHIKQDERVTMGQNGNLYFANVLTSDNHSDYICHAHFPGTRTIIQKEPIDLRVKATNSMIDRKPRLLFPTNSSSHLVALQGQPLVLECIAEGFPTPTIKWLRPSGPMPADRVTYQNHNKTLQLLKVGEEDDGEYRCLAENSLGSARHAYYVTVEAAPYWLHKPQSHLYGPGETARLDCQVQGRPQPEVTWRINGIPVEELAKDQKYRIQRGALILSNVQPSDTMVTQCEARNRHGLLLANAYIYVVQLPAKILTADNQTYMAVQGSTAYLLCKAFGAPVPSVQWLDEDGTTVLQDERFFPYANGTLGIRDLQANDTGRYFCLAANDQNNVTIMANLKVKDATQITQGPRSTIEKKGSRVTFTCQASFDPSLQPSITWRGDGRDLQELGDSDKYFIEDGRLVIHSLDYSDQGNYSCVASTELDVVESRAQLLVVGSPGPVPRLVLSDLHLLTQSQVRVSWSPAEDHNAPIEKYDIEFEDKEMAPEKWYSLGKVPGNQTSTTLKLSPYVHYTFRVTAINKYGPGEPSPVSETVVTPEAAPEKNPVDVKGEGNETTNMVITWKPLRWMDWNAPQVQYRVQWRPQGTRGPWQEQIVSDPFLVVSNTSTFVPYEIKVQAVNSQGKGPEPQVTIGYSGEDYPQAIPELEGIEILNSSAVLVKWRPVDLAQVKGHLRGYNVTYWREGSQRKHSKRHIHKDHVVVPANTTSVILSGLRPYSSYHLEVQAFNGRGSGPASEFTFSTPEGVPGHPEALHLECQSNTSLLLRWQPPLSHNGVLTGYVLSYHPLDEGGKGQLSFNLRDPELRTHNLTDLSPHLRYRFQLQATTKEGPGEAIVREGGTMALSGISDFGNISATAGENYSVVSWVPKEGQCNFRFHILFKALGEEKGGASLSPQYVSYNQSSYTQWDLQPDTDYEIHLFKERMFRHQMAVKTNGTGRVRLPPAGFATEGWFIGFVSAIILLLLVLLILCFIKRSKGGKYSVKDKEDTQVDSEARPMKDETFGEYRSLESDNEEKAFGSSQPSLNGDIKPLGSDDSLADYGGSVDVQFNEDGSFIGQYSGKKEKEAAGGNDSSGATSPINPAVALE

B1: TDI-Y-005 ADC with PNU-159682 and a cleavable Glu-Val-Cit linker (antibody, human IgG1, kappa, V domains shown)
VH: EVQMVESGGGLVQPGGSLRLSCAAPGFIFSSYNMNWVRQAPGKGLEWVSYISSSSSTTYYADSVKGRFTISRDNAKNSLYLQMNSLRDEDTAVYYCASLYSGYDYYYYYGMDVWGQGTTVTVSS
VL: DIVMTQTPLSSPVSLGQPASISCRSSQSLVHSDGNTYLSWLQQRPGQPPRVLIYKISKRFSGVPDRFSGSGAGTDFTLKISRVEAEDVGVYYCMQATQFPFTFGPGTKVDIKR
modifications: ThioBridge linker-payload on the interchain disulfide cysteine; ThioBridge-Glu[-Glu(OH)-Val-Cit-PAB-DMEA-PNU159682]-PEG(24) rebridging the reduced interchain disulfide cysteines; average DAR about 4
B1 was tested, and the “EC50 of cytotoxicity, HEK293T-hL1CAM cells (CellTiterGlo, 96 hours)” value (human L1CAM on cells [1]) was 0.03 nM, the “EC50 of cytotoxicity, MCF-7 cells (CellTiterGlo, 96 hours)” value (human L1CAM on cells [1]) was 0.4 nM and the “EC50 of cytotoxicity, MDA-MB-231 cells (CellTiterGlo, 96 hours)” value (human L1CAM on cells [1]) was 12.4 nM.

B2: 14A10 (antibody, V domains shown)
VH: B1 VH
VL: DIVMTQTPLSSPVSLGQPASISCRSSQSLVHSDGNTYLSWLQQRPGQPPRVLIYKISKRFSGVPDRFSGSGAGTDFTLKISRVEAEDVGVYYCMQATQFPFTFGPGTKVDIK
notes: mAb from AlivaMab mice
B2 gave an EC50 (human L1CAM on cells [2]) of 5.3 nM, a Kd [3] of 1.2 nM and an EC50 (human L1CAM on cells [4]) of 8.9 nM. It also gave a Kd [5] of 3.2 nM, an EC50 (human L1CAM on cells [6]) of 3.5 nM and an EC50 [7] of 5.6 nM.

B3: hu14A10 (antibody, V domains shown)
VH: B1 VH
VL: B2 VL
In the case of B3, the EC50 (human L1CAM on cells [8]) is reported as 5.93 nM.

B4: 143G03 (antibody, V domains shown)
VH: QVQLRQSGAELVRPGTSVKMSCKASGYTFTNYYIHWVKQRPGQGLEWIGKIGPGSGSPYYNGMFKDKATLTVDTSSSTAYMQLSSLTSEDSAVYFCARWLLPFDYWGQGTTLTVSS
VL: QIVLSQSPGILSASPGEKVTMTCRASSSVNYMHWYQQKSGSSPKPWIFATSILASGVPPRFSGSGSGTSYSLTISSVEAEDTATYYCQQFSSDPLTFGAGTKLELK
notes: mAb from wild-type mice; also called 143G03 WT; murine 143G03 mAb
B4 was tested, and the EC50 (human L1CAM on cells [2]) was 0.35 nM, the Kd [3] was 0.12 nM and the EC50 (human L1CAM on cells [4]) was 0.9 nM. The Kd [5] was 0.34 nM, the EC50 (human L1CAM on cells [6]) was 1 nM and the binding result [7] was “no binding”. For the same binder, the EC50 (human L1CAM on cells [8]) was 0.85 nM.

B5: Ch143G03-GF (antibody, V domains shown)
VH: B4 VH
VL: B4 VL
notes: read as chimeric 143G03 (murine variable regions of 143G03, human constant regions). '-GF' is not explained
In the case of B5, the EC50 (human L1CAM on cells [8]) is reported as 0.727 nM.

B6: 13F04 (antibody, V domains shown)
VH: QVQLQQPGAELVKPGASVKLSCKASGYIFISYWMHWVKQRPGQGLEWIGEINPRNGRTNYNEKFKSKATLTVDKSSSTAYMQLTSLTSEDSAVYYCARGGDYGGSFDYWGQGTTLTVSS
VL: DIVLTQSPASLAVSLGQRATISCRASESVDSYGNSFMHWYQQKPGQPPKLLIYRASNLESGIPARFSGSGSRTDFTLTVNPVEADDVATYYCQQSNEDPWTFGGGTKLEIK
notes: mAb from wild-type mice, purified from the supernatant of a hybridoma clone; also called L1CAM mAb 13F04
B6 showed an EC50 (human L1CAM on cells [2]) of 1.2 nM, a Kd [3] of 1.13 nM and an EC50 (human L1CAM on cells [4]) of 1.7 nM. For the same binder, the Kd [5] was 19.8 nM, the EC50 (human L1CAM on cells [6]) was 4 nM and the binding result [7] was “no binding”.

B7: 76H12 Fab construct 1 (chimeric; parental mouse 76H12 V-regions) (Fab, V domains shown)
VH: QVQLQQPGSDLVRPGTSVKLSCKASGYTFTSYWMHWVKQRPGQGLEWIGNVYPGSGSTKYDEKFKTKATLTVDTSSNTAYMELSSLTSEDSAVYYCTRPGNYEGFAYWGQGTLVTVSA
VL: B6 VL with D1N, N34S, R54L, I62V, V79I, N80D, V87A, S95N
notes: also called Fab 1; chimeric 76H12 Fab
For B7, the Kd [9] was 39.6 nM, the koff [9] was 0.0232 s⁻¹ and the kon [9] was 586000 M⁻¹ s⁻¹.

B8: TDI-Y-004 ADC with PNU-159682 and a cleavable Glu-Val-Cit linker (antibody, human IgG1, kappa, V domains shown)
VH: QVQLVQSGAEVKKPGSSVKVSCKASGYTFTNYYIHWVRQAPGQGLEWMGKIGPGSGSPYYQGMFKDRVTITADESTSTAYMELSSLRSEDTAVYYCARWLLPFDYWGQGTLVTVSS
VL: EIVLTQSPGTLSLSPGERATLSCRASSSVNYMHWYQQKPGQAPRLLIYATSILASGIPDRFSGSGSGTDYTLTISRLEPEDFAVYYCQQFSSDPLTFGGGTKVEIKR
modifications: ThioBridge linker-payload on the interchain disulfide cysteine; ThioBridge-Glu[-Glu(OH)-Val-Cit-PAB-DMEA-PNU159682]-PEG(24) rebridging the reduced interchain disulfide cysteines; average DAR about 4
For B8, the “EC50 of cytotoxicity, HEK293T-hL1CAM cells (CellTiterGlo, 96 hours)” value (human L1CAM on cells [1]) was 0.008 nM, the “EC50 of cytotoxicity, MCF-7 cells (CellTiterGlo, 96 hours)” value (human L1CAM on cells [1]) was 0.03 nM and the “EC50 of cytotoxicity, MDA-MB-231 cells (CellTiterGlo, 96 hours)” value (human L1CAM on cells [1]) was 3.3 nM.

B9: 04B06 (antibody, V domains shown)
VH: QVQLQESGPGLVKPSETLSLTCTVSGGSINSYYWSWIRQPAGKGLEWIGRFYTSGSTNHNPSLKSRVTMSVDTSKNQFSLKLTSVTAADTAVYYCAREWSGSFYGGDAFDIWGQGTMVTVSS
VL: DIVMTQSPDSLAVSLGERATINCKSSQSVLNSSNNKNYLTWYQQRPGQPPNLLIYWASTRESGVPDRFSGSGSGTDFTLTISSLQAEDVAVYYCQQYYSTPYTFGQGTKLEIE
notes: mAb from AlivaMab mice (human immunoglobulin repertoire), purified from hybridoma supernatant
Binder B9 has an EC50 (human L1CAM on cells [2]) of 1.1 nM, a Kd [3] of 0.07 nM and an EC50 (human L1CAM on cells [4]) of 9.6 nM. For the same binder, the Kd [5] was 0.6 nM, the EC50 (human L1CAM on cells [6]) was 2.3 nM and the binding result [7] was “no binding”.

B10: 15G02 (antibody, V domains shown)
VH: EVQLVESGGGLVQPGGSLRLSCGVSGFTFSHYWMNWVRQAPGKGLEWVANIMQDGSEKYYVDSVKGRFTISRDNAKNSLYLQMNSLRVEDTAVYYCARDRGVTTLFDYWGQGILVTVSS
VL: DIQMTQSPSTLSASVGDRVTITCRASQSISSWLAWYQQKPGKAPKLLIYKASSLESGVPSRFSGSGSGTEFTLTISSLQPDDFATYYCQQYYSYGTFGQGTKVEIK
notes: mAb from AlivaMab mice, purified from hybridoma supernatant
With B10 the EC50 (human L1CAM on cells [2]) was 1 nM, the Kd [3] was 0.58 nM and the EC50 (human L1CAM on cells [4]) was 0.98 nM. The Kd [5] was 0.93 nM, the EC50 (human L1CAM on cells [6]) was 2.6 nM and the binding result [7] was “no binding”.

B11: 13G04 (antibody, V domains shown)
VH: QVQLVQSGAEVKKPGASVKVSCKASGYTFIGYYLHWVRQAPGQGLEWMGWINPNSGGTNSAQKFQGRVTMTRDTSISTTYMDLSRLRSDDTAVYYCARGGLERRDAFDIWGQGTLVTVSS
VL: DIQMTQSPSTLSASVGDRVTITCRASQSISNWLAWYQQKPGKAPNLLIYKASSLESGVPSRFSGSGSGTEFTLTISSLQPDDFATYYCQQYDTYRTFGQGTKVEIK
notes: as for B10
Work on B11 yielded an EC50 (human L1CAM on cells [2]) of 4.8 nM, an EC50 (human L1CAM on cells [4]) of 6.7 nM and a Kd [5] of 3.2 nM. For the same binder, the EC50 (human L1CAM on cells [6]) was 4.8 nM, the binding result [7] was “no binding” and the Kd [10] was under 0.02 nM.

B12: 76H12 Fab construct 2 (humanized) (Fab, V domains shown)
VH: QVQLVQSGAEVKKPGASVKVSCKASGYTFTSYWMHWVRQAPGQGLEWMGNVYPGSGSTKYAQKFQGRVTMTRDTSTSTVYMELSSLRSEDTAVYYCARPGNYEGFAYWGQGTLVTVSS
VL: NIQLTQSPSSLSASVGDRVTITCRASESVDSYGSSFMHWYQQKPGKPPKLLIYLASNLESGVPSRFSGSGSGTDFTLTISSLQPEDFATYYCQQNNEDPWTFGQGTKLEIK
notes: also called Fab 2
For B12, the Kd [9] was 88.8 nM, the koff [9] was 0.0706 s⁻¹ and the kon [9] was 797000 M⁻¹ s⁻¹.
